Data taken from PMC6069114, “Fungal Light-Oxygen-Voltage Domains for Optogenetic Control of Gene Expression and Flocculation in Yeast” (mBio, 2018).

Columns and labels:
[1] = target: T1, LOV domain of White Collar 1 (WC-1) bound to the Gal4 DNA binding domain (Neurospora crassa, UniProt Q01371 381-508); assay: two-hybrid; FUN-LOV switch in S. cerevisiae; luciferase activity in protein extracts of cells grown 8 h in constant light (LL) against constant darkness (DD), normalised to total protein; conditions: partners not purified
T1 construct: White Collar 1 (WC-1), blue-light photoreceptor of Neurospora crassa; LOV domain only; also called WC-1 LOV-BD; WC-1 LOV plus GAL4-DBD; source: yeast two-hybrid fusion; S. cerevisiae BY4741 (wt or gal4Δ-gal80Δ), episomal pRS423, ADH1 promoter
T1 sequence (looked up): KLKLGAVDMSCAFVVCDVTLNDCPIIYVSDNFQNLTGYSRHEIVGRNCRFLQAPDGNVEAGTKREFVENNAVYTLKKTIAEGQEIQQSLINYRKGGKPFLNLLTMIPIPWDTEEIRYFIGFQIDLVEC

[2] = target: T1, LOV domain of White Collar 1 (WC-1) …; assay: two-hybrid; FUN-LOV switch in S. cerevisiae; destabilized firefly luciferase reporter under P_(GAL1) or P_(5XGAL1); luminescence of living cells normalised by OD600; constant white light (100 µmol m^-2 s^-1) or constant blue light (20 µmol m^-2 s^-1), 30°C; fold induction against the average background in constant darkness; conditions: partners not purified

- fold induction of luciferase activity in protein extracts, LL over DD [1]: ~2500 fold
- fold induction of the luciferase reporter, blue light over darkness (P_(5XGAL1)) [2]: 1320 fold
- fold induction of the luciferase reporter, white light over darkness (P_(5XGAL1)) [2]: 1220 fold
B1: full-length VIVID (VVD) tethered to the Gal4 transactivation domain (natural protein, Neurospora crassa, UniProt Q9C3Y6 1-186, looked up)
chain: MSHTVNSSTMNPWEVEAYQQYHYDPRTAPTANPLFFHTLYAPGGYDIMGYLIQIMNRPNPQVELGPVDTSCALILCDLKQKDTPIVYASEAFLYMTGYSNAEVLGRNCRFLQSPDGMVKPKSTRKYVDSNTINTMRKAIDRNAEVQVEVVNFKKNGQRFVNFLTMIPVRDETGEYRYSMGFQCETE
notes: VIVID (VVD), blue-light photoreceptor of Neurospora crassa; full-length VVD and not just VVD-36; also called VVD-AD; VVD plus GAL4-AD; source: yeast two-hybrid fusion; S. cerevisiae BY4741 (wt or gal4Δ-gal80Δ), episomal pRS425, ADH1 promoter
